Measurements published in patent US20220204610A1, “PROTEIN BINDERS FOR IRHOM2” (NEW YORK SOCIETY FOR THE RELIEF OF THE RUPTURED AND …, priority 2019, published 2022).

Tested on: LPS-induced release of endogenous TNFα from human THP-1 macrophage cells
Test: ELISA-based TNFα release assay, IC50 determination (Example 12)
Type: cell-based
Conditions: titration 80.00 to 0.08 μg/ml final; LPS 50 ng/ml, 3 hours
Experimental: Expanding the functional analyses, ELISA-based TNFα release assays were performed to determine the half maximal inhibitory concentration (IC50) for the purified antibody 4H8-E3 of the invention on LPS-induced release of endogenous TNFα from human THP-1 macrophage cells.
In brief, on day 1, Nunc black MaxiSorp® 96-well plates (Thermo Fisher Scientific, USA) were coated overnight with 100 μl per well of mouse anti-human TNFα capture antibody (provided as part of the DuoSet ELISA kit) at 4 μg/ml TBS at 4° C. On day 2, the capture antibody solution was removed and MaxiSorp® plates were blocked with 300 μl per well of TBS, 1% BSA at room temperature for 3 hours. […] Using an infinite M1000 PRO (Tecan Group, Switzerland) microplate reader, the fluorescence of each well was collected at an excitation wavelength of 435 nm and an emission wavelength of 555 nm.

B1: 4H8-E3: Mouse IgM monoclonal antibody against the human iRhom2 juxtamembrane domain adjacent to TMD1; HC VD SEQ ID NO 33, LC VD SEQ ID NO 40 (antibody, V domains shown)
VH: EVQLQQSGPELVKPGASVKISCKASGYTFTDYYMNWVKQSHGKSLEWIGDINPNNGGTSYNQKFKGKATLTVDKSSNTAYMEFRSLTSEDSAVYYCARRGYYGVDYWGQGTTLTVSS
VL: NIVMTQSPKSMSMSVGERVTLNCKASENVGTYVSWYQQKPEQSPKLLIFGASNRYTGVPDRFIGSGFATDFTLTISSVQAEDLADYHCGQSYSYPYTFGGGTKLEIK
modifications: IgM constant regions; antibody sequence
With B1 the “inhibition of TNFα release from THP-1 cells on titration” value was “concentration-dependent inhibition”.
